In patent US20150166663A1 (AstraZeneca / MedImmune, published 2015):
Positions count from the first letter of the chain named. Values belong to the binder of their own block, whether it stands above or below them.

Tests used:
soluble αVβ6 = target: T1, soluble αVβ6 (human, UniProt P06756 31-992; P18564 22-709); assay: competition ELISA: soluble αVβ6 (250 ng/ml) pre-incubated with the mAb, then binding to plate-coated GST-LAP, bound αVβ6 detected with mAb 2075
T1 construct: extracellular domain; also called soluble antigen; soluble αVβ6 protein
Procedure: The wells were then washed three times using 300 μL/well of assay diluent. […] The wells were then washed three times using 300 μL/well of assay diluent, and incubated with goat anti-mouse IgG Fc-peroxidase at 400 ng/ml in assay diluent (50 μL/well) for one hour at room temperature. The wells were then washed three times using 300 μL/well of assay diluent, and developed using 1-step TMB (Neogen) at a total volume of 50 μL/well. After 15 minutes, the developing reaction was quenched with 50 μL/well of 1N Hydrochloric acid.

cynomolgus αVβ6 on cells [1] = target: T2, cynomolgus αVβ6 on cells (cynomolgus); assay: FACS, supernatant, HEK-293 cells transfected with cynomolgus αV and β6
T2 construct: whole, on cells; also called macaque αVβ6; Mac AVB6
Procedure: The assays were performed as follows. […] The cells were then pelleted, the supernatant discarded, and resuspended in FACS buffer and incubated for 30 minutes at 37° C. Cells were then washed twice with FACS buffer and resuspended in a final volume of 100 μL FACS buffer per well.
HEK-293 cells were transiently transfected with cynomolgus αV and cynomolgus β6. After 48 hours, the cells were collected and resuspended in FACS buffer to reach a final concentration of approximately 50,000 cells in 100 μL.
Approximately 100,000 cells total, comprising a 50:50 mix of CFSE-labeled A375M cells and transfected 293 cells, were used in each reaction as follows. 100 μL of CFSE-labeled A375M cells and 100 μL of 293 cells were dispensed into a V-bottom plate. The cells in the plate were pelleted at 1500 rpm for 3 minutes, and then resuspended in 100 μL FACS buffer. The pelleting step was repeated, and the FACS buffer supernatant was removed. The harvested antibody-containing supernatants, or control primary antibodies were added in a volume of 50 μL and the cells were resuspended. […] The plate was incubated on ice for 45 minutes, after which 100 μL FACS buffer was added to dilute the primary antibody. The cells were then pelleted by centrifuging at 1500 rpm for 3 minutes, and the pellet was resuspended in 100 μL FACS buffer. The pelleting step was repeated, and the FACS buffer supernatant was removed. Cells were then resuspended in the appropriate secondary antibody (5 μg/ml) with 7AAD dye (10 μg/ml), and stained on ice for 7 minutes. Then 150 μL of FACS buffer was added and the cells were pelLeted at 1500 rpm for 3 minutes, after which the cells were washed in 100 μL FACS buffer, pelleted, and then resuspended in 250 μL buffer and added to FACS tubes. Samples were analyzed on a high throughput FACS machine and analyzed using Cell Quest Pro software.

[2] = target: T3, human αVβ6 integrin on cells (human, UniProt P06756 31-1048; P18564 22-788); assay: FACS, 293T-αVβ6 cells, 1.25 ug/ml
T3 construct: whole, on cells; also called alphaVbeta6

[3] = target: T3, human αVβ6 integrin on cells; assay: FACS titration on K562 cells stably expressing human αVβ6, done as in Example 18, averaged geometric mean fluorescence
[4] = target: T3, human αVβ6 integrin on cells; assay: FACS, 293T-αVβ6 cells, 5 ug/ml
[5] = target: T3, human αVβ6 integrin on cells; assay: FACS, 293T-αVβ6 cells, 20 ug/ml
cynomolgus αVβ6 on cells [6] = target: T2, cynomolgus αVβ6 on cells; assay: FACS, purified mAb, transiently transfected HEK-293 cells
Procedure: (§1) Cross-reactivity of the mAbs to macaque and mouse αVβ6 was tested on the purified mAbs using FACS analysis on HEK-293 cells transiently transfected with cynomolgus or mouse αV, β6, or αVβ6. Approximately 48 hours after transfection, the cells were collected and resuspended in FACS buffer to reach a final concentration of approximately 50,000 cells in 100 μL.
(§2) Approximately 100,000 cells total, were used in each reaction as follows. 200 μL of 293 cells were dispensed into a V-bottom plate. The cells in the plate were pelleted at 1500 rpm for 3 minutes, and then resuspended in 100 μL FACS buffer. The pelleting step was repeated, and the FACS buffer supernatant was removed. The purified mAbs, or control primary antibodies were added in a volume of 50 μL and the cells were resuspended. […] The plate was incubated on ice for 45 minutes, after which 100 μL FACS buffer was added to dilute the primary antibody. The cells were then pelleted by centrifuging at 1500 rpm for 3 minutes, and the pellet was resuspended in 100 μL FACS buffer. The pelleting step was repeated, and the FACS buffer supernatant was removed. Cells were then resuspended in the appropriate secondary antibody (5 μg/ml) with 7AAD dye (10 μg/ml), and stained on ice for 7 minutes. Then 150 μL of FACS buffer was added and the cells were pelleted at 1500 rpm for 3 minutes, after which the cells were washed in 100 μL FACS buffer, pelleted, and then resuspended in 250 μL buffer and added to FACS tubes. Samples were analyzed on a high throughput FACS machine and analyzed using Cell Quest Pro software.

[7] = target: T4, cynomolgus β6 on transfected HEK-293 cells (cynomolgus); assay: as above
T4 chain: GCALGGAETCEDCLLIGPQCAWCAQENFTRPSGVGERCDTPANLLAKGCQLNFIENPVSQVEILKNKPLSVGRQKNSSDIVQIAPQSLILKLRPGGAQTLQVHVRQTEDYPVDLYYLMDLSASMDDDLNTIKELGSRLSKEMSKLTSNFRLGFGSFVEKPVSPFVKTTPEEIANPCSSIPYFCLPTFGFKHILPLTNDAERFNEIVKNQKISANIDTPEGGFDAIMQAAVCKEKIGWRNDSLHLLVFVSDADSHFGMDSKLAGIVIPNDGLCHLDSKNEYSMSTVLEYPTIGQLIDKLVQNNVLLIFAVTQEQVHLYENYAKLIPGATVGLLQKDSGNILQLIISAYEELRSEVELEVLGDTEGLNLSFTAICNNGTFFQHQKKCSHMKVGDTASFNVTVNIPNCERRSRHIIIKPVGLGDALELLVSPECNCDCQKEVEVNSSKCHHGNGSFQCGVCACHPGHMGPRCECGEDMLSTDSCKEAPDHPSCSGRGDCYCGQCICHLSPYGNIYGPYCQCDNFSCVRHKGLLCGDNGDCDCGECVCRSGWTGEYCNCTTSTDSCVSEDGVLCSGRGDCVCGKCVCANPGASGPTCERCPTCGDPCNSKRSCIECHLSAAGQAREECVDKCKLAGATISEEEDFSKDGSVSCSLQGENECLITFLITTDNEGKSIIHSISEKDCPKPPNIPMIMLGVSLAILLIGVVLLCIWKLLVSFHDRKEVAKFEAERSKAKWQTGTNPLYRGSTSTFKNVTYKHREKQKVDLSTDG
Procedure: as §1, §2

[8] = target: T5, cynomolgus αV on transfected HEK-293 cells (cynomolgus, UniProt A0A2K5WCD3 31-1048); assay: as above
T5 construct: Chain transfected alone; also called Cynomolgus alphaV
Procedure: as §1, §2

cynomolgus αVβ6 on cells [9] = target: T2, cynomolgus αVβ6 on cells; assay: FACS, purified mAb, transiently transfected HEK-293 cells (parental cells 49)
Procedure: as §1, §2

[10] = target: T5, cynomolgus αV on transfected HEK-293 …; assay: as above
Procedure: as §1, §2

mouse αVβ6 on cells = target: T6, mouse αVβ6 on cells (mouse, UniProt P43406 31-1044; Q9Z0T9 22-787); assay: as above
T6 construct: whole, on cells; also called Mouse alphaVbeta6
Procedure: as §1, §2

[11] = target: T3, human αVβ6 integrin on cells; assay: FACS titration on K562 cells stably expressing human αVβ6, Cy5 goat anti-human detection, averaged geometric mean fluorescence
Procedure: K562 cells expressing αVβ6 were resuspended in filtered HBS buffer containing 1 mM of MgCl₂ and 1 mM of CaCl₂ at a concentration of approximately 6 million cells/mL. The cells were kept on ice. […] The 12th well in each row contained buffer only. Titrations were done in triplicate. Additional HBS and cells were added to each well so that the final volume was 300 μL/well and each well contained approximately 120,000 cells. […] The plates were then shaken for 40 minutes at 4° C., and thereafter were spun and washed once again three times with HBS. The Geometric Mean Fluorescence (GMF) of 20,000 “events” for each mAb concentration was recorded using a FACSCalibur instrument, and the corresponding triplicate titration points were averaged to give one GMF point for each mAb concentration. A plot of the averaged GMF as a function of molecular mAb concentration with Scientist software was fit nonlinearly using the equation:

T3 sequence (P06756 31-1048, one chain of several): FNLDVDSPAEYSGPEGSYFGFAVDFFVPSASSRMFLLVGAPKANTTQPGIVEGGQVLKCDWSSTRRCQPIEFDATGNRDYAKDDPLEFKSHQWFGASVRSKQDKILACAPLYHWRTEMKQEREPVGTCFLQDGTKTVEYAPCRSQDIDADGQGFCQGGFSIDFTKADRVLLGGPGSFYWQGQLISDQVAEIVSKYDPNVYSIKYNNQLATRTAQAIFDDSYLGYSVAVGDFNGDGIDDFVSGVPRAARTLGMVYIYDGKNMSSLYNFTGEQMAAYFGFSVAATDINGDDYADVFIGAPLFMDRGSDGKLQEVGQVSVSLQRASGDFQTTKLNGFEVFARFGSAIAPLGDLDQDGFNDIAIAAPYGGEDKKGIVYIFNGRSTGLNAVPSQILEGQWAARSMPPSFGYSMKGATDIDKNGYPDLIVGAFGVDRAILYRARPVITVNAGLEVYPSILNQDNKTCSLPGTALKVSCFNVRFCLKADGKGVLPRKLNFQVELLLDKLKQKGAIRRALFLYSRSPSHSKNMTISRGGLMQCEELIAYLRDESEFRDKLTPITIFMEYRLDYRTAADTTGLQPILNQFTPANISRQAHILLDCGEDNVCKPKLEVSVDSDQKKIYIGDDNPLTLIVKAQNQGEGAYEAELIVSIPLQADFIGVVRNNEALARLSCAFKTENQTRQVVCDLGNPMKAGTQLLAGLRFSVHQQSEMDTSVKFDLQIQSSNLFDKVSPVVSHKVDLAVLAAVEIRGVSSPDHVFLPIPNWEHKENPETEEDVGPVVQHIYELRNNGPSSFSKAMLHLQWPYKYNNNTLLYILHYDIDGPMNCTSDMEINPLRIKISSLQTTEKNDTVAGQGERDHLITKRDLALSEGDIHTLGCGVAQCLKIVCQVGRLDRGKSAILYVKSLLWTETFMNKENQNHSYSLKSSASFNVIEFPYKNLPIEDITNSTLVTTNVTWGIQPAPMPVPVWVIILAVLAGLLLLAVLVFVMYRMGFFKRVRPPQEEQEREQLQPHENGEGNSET
T1 sequence (P06756 31-992, one chain of several): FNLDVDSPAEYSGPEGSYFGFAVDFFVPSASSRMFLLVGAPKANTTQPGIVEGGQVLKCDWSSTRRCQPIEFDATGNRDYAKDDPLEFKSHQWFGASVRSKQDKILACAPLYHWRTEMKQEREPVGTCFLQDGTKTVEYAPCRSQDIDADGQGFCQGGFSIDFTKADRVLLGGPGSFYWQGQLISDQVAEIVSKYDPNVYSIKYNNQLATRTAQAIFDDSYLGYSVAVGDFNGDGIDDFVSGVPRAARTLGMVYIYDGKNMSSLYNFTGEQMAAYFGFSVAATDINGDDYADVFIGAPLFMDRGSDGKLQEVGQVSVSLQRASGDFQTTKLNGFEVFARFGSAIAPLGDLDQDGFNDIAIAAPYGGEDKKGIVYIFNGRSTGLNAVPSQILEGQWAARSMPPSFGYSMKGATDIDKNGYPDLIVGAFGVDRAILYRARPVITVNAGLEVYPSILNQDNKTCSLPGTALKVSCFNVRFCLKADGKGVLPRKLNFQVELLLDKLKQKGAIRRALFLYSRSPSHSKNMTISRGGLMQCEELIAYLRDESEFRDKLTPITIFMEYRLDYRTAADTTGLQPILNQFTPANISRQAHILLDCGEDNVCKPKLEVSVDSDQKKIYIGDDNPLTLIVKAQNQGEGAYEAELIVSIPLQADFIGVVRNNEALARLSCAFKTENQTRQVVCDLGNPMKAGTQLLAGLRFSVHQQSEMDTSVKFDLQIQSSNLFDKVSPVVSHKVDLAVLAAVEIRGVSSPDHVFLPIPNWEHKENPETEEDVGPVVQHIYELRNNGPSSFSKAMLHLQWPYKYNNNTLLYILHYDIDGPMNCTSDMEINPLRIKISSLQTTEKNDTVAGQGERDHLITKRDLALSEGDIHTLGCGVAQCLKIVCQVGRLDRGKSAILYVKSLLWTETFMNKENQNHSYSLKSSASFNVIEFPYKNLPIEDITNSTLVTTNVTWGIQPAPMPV
T5 sequence (A0A2K5WCD3 entry or part of it limits assumed): as the sequence (P06756 31-1048, one chain of several) above, with M118L, L264I, E270D, R562W, S609F, N660S, V753I, T840A counted along it
T6 sequence (P43406 31-1044, chain 1 of 2): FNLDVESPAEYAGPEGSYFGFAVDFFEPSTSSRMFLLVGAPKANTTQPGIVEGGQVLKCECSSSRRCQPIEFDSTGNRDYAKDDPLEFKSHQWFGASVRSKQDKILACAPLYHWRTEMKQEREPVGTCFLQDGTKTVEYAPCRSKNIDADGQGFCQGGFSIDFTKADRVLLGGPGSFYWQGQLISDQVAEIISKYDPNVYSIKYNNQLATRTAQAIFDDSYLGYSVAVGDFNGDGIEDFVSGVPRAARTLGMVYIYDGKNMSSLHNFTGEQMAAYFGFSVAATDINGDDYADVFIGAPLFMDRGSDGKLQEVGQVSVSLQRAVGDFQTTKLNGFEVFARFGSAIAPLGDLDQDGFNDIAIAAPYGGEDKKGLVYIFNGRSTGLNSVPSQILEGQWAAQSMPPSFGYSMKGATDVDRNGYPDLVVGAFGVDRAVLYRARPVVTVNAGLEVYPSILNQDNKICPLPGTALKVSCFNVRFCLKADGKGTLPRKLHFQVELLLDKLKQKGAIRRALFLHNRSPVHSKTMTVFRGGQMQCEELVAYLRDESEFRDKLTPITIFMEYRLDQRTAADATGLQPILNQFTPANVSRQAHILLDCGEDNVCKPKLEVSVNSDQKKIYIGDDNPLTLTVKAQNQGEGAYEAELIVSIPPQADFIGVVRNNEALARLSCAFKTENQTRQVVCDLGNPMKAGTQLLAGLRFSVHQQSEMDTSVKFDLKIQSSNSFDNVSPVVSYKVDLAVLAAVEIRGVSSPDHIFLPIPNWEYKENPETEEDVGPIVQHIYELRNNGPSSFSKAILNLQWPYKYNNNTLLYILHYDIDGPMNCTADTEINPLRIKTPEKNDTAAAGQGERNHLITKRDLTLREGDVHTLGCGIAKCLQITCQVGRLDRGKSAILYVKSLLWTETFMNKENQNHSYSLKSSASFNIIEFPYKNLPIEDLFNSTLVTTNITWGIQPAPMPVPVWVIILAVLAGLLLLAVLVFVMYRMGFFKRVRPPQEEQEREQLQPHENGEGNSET
T6 sequence (Q9Z0T9 22-787, chain 2 of 2): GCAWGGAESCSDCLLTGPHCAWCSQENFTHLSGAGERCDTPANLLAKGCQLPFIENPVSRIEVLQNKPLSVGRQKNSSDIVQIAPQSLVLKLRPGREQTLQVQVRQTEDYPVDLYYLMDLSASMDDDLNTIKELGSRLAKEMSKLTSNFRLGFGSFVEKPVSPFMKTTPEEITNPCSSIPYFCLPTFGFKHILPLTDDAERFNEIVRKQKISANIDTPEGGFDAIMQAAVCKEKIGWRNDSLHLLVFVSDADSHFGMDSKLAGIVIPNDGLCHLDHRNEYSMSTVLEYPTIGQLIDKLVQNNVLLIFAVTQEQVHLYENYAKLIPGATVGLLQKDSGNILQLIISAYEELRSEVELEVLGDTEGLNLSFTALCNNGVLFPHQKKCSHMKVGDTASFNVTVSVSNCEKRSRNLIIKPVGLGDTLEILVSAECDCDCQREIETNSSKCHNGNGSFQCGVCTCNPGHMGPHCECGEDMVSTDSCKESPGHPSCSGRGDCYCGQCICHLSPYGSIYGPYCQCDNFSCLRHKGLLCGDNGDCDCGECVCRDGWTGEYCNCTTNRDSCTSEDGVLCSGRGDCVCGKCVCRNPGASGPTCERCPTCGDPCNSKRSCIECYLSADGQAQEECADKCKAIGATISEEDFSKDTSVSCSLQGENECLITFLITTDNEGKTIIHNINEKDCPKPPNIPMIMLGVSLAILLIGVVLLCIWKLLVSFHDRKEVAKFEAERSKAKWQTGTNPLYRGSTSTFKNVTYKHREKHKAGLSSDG

- IC50 (read off the curve) (soluble αVβ6): ~0.3 µg/mL
- Mac AVB6 GeoMean (cynomolgus αVβ6 on cells [1]): 78.5
B1: sc 254 (antibody, V domains shown)
VH: QVQLQESGPGLVKPSQTLSLTCTVSGGSISSGGYYWSWIRQHPGKGLEWIGYIYYSGSTYYNPSLKSRVTISVDTSKNQFSLKLSSVTAADTAMYYCARYRGPAAGRGDFYYFGMDVWGQGTTVTVSS
VL: DIVMTQTPLSLSVTPGQPASIFCKSSQSLLNSDGKTYLCWYLQKPGQPPQLLIYEVSNRFSGVPDRFSGSGSGTDFTLKISRVEAEDVGVYYCMQGIQLPWAFFGQGTKVEIK
notes: Fully human XenoMouse mAb

- Mac AVB6 % Cells Shifted (cynomolgus αVβ6 on cells [1]): 55%
- Mac AVB6 GeoMean (cynomolgus αVβ6 on cells [1]): 66.4
B2: sc 264 (antibody, V domains shown)
VH: QVQLQESGPGLVKPSQTLSLTCTVSGGSISSGGYYWSWIRQHPGKGLEWIGYIYYSGRTYNNPSLKSRVTISVDTSKNQFSLKLSSVTAADTAVYYCARVATGRGDYHFYAMDVWGQGTTVTVSS
VL: SYELTQPSSVSVSPGQTARITCSGDVLAKKSARWFHQKPGQAPVLVIYKDSERPSGIPERFSGSSSGTTVTLTISGAQVEDEAAYYCYSAADNNLVFGGGTKLTVL
notes: Fully human XenoMouse mAb; Has RGD in heavy chain CDR3

- Geometric Mean Shift [2]: 4890 arbitrary units
- EC50 (read off the curve) [3]: ~0.08 nM
- Geometric Mean Shift [4]: 6840 arbitrary units
- Geometric Mean Shift [5]: 7240 arbitrary units
B3: sc 264 RAD (antibody, V domains shown)
VH: B2 VH with G105A
VL: B2 VL

- Mac AVB6 % Cells Shifted (cynomolgus αVβ6 on cells [1]): 25%
- Mac AVB6 GeoMean (cynomolgus αVβ6 on cells [1]): 22.8
B4: sc 58 (antibody, V domains shown)
VH: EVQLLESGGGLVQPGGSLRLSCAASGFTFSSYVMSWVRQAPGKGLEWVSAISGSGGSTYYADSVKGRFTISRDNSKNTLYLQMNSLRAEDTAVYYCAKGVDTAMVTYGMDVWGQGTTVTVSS
VL: SYELTQPPSVSVSPGQTARITCSGDALPKKYAYWYQQKSGQAPVLVIYDDSKRPSGIPERFSGSSSGTMATLTISGAQVEDEADYYCYSTDSSGNHRVFGGGTKLTVL
notes: Fully human XenoMouse mAb; also called sc 058

- Mac AVB6 % Cells Shifted (cynomolgus αVβ6 on cells [1]): 35%
- Mac AVB6 GeoMean (cynomolgus αVβ6 on cells [1]): 33.4
B5: sc 277 (antibody, V domains shown)
VH: EVQLVQSGAEVKKPGESLKISCKGSGYSFPSYWIGWVRQMPGKGLEWMGIIYPGDSDTRYSPSFQGQVTISADKSISTAYLQWSSLKASDTAMYYCARHPMEDGMDVWGQGTTVTVSS
VL: SYELTQPPSVSVSPGQTARITCSGDALPKKYAFWYQQKSGQAPVLVIYDDNKRPSGIPERFSGSSSGTMATLTITGAQVEDEADYYCYSTDSSGHHVFGGGTKLTVL
notes: Fully human XenoMouse mAb

- percent of cells shifted (cynomolgus αVβ6 on cells [6]): 28%
- percent of cells shifted [7]: 10%
- percent of cells shifted [8]: 5%
- Mac AVB6 % Cells Shifted (cynomolgus αVβ6 on cells [1]): 32%
- Mac AVB6 GeoMean (cynomolgus αVβ6 on cells [1]): 35.2
B6: sc 133 (antibody, V domains shown)
VH: QVQLVQSGAEVKKPGASVKVSCKASGYTFTGYYMHWVRQAPGQGLEWMGWINPKSGDTNYAQKFQGRVTLTRDTSTSTAYMELSRLRSDDTAVYYCARRLDVWGQGTTVTVSS
VL: QSVLTQPPSVSAAPGQKVTISCSGSSSNIGNNYVSWYQQLPGTAPKLLIYDNNKRPSGIPDRFSGSKSGTSATLGITGLQTGDEADYYCGTWNSSLSAGYVFGTGTKVTV
notes: Fully human XenoMouse mAb

- Mac AVB6 % Cells Shifted (cynomolgus αVβ6 on cells [1]): 19%
- Mac AVB6 GeoMean (cynomolgus αVβ6 on cells [1]): 33.5
B7: sc 320 (antibody, V domains shown)
VH: EVQLVESGGGLVKPGGSLRLSCAASGYTFTNYIMHWVRQAPGKGLEWVSSISISSSYIYYADSVKGRFTISRDNAKNSLYLQMNSLRAEDTAVYYCARDPVPLERRDYYYGMDVWGQGTTVTVSS
VL: QSVLTQPPSMSAAPGQKVTISCSGSSSNIGNNYVSWYQQLPGTAPKLLIYDNNKRPSGIPDRFSGSKSGTSATLGITGLQTGDEADYYCGTWDSSLSAGVFGGGTKLTVL
notes: Fully human XenoMouse mAb

- Mac AVB6 % Cells Shifted (cynomolgus αVβ6 on cells [1]): 23%
- Mac AVB6 GeoMean (cynomolgus αVβ6 on cells [1]): 30.2
B8: sc 49 (antibody, V domains shown)
VH: QVQLQESGPGLVKPSQTLSLTCTVAGGSIRSGDYYWSWIRQHPGKGLEWIGNIYYSGSTYYNPSLKSRITISVATSRNQFSLKLTSVTAADTAVYYCARGGAITIFGVFDYWGQGTLVTVSS
VL: not shown
notes: Fully human XenoMouse mAb; also called sc 049

- Mac AVB6 % Cells Shifted (cynomolgus αVβ6 on cells [1]): 14%
- Mac AVB6 GeoMean (cynomolgus αVβ6 on cells [1]): 33
B9: sc 161 (antibody, V domains shown)
VH: EVQLVQSGAEVKKPGESLKISCKGSGYSFTSYWIGWVRQMPGKGLEWMGIIYPGDSDTRYSPSFQGQVTISADKSISTAYLQWSSLKASDTAMYYCARHGIAAAGFYYYYMDVWGQGTTVTVSS
VL: EIVLTQSPDTLSLSPGERASLSCRASQNVNRNYLVWYQQKPGQAPRLLIYGTSNRATGIPDRFSGSGSGTDFTLTISRLEPEDFAVYYCQQCGSLPFTFGPGTKVDIKR
notes: Fully human XenoMouse mAb

- IC50 (read off the curve) (soluble αVβ6): ~0.2 µg/mL
- percent of cells shifted (cynomolgus αVβ6 on cells [9]): 38%
- percent of cells shifted [10]: 48%
- percent of cells shifted (mouse αVβ6 on cells): 53%
- Mac AVB6 % Cells Shifted (cynomolgus αVβ6 on cells [1]): 53%
- Mac AVB6 GeoMean (cynomolgus αVβ6 on cells [1]): 63.1
B10: sc 298 (antibody, V domains shown)
VH: QVQLVESGGGVVQPGRSLRLSCAASGFTFSSYGMHWVRQAPGKGLEWVAVIWYGGSNKYYADSVKGRFTISRDNSKNTLYLQMNSLRAEDTAVYYCARDLAARRGDYYYYGMDVWGQGTTVTVSS
VL: SSELTQDPVVSVALGQTVRITCQGDSLRSYYLSWYQQKPGQAPVLVIYGKNNRPSGIPDRFSGSNSGNTASLTITGAQAEDEADYYCNSRDSSGNHLFGGGTKLTVL
notes: Fully human XenoMouse mAb

- Mac AVB6 GeoMean (cynomolgus αVβ6 on cells [1]): 61.8
B11: sc 374 (antibody, V domains shown)
VH: B10 VH with G54D, D99T, L100E, A101G, A102I, R103A, R104A, G105R, D106L
VL: not shown
notes: Fully human XenoMouse mAb

- IC50 (read off the curve) (soluble αVβ6): ~0.2 µg/mL
- EC50 (read off the curve) [11]: ~0.06 nM
- Mac AVB6 GeoMean (cynomolgus αVβ6 on cells [1]): 23.9
B12: sc 188 (antibody, V domains shown)
VH: QVQLQESGPGLVKPSQTLSLTCTVSGGSISSGVYYWTWIRQHPGNGLEWIGYIYYSGSTSYNPSLKSRVTISVDTSKKQFSLNLTSVTAADTAVYYCAREGPLRGDYYYGLDVWGQGTTVTVSS
VL: EIVLTQSPGTLSLSPGERATLSCRAGQTISSRYLAWYQQKPGQAPRPLIYGASSRATGIPDRFSGSGSGTDFTLTISRLEPEDFAVYYCQQYGSSPRTFGQGTKVEIK
notes: Fully human XenoMouse mAb; Has a glycosylation site (NLT) in heavy chain FR3

- Geometric Mean Shift [2]: 4530 arbitrary units
- Geometric Mean Shift [4]: 6820 arbitrary units
- Geometric Mean Shift [5]: 6760 arbitrary units
B13: sc 188 SDM (antibody, V domains shown)
VH: B12 VH with N83K
VL: B12 VL

- Mac AVB6 % Cells Shifted (cynomolgus αVβ6 on cells [1]): 35%
- Mac AVB6 GeoMean (cynomolgus αVβ6 on cells [1]): 37
B14: sc 97 (antibody, V domains shown)
VH: EVQLVQSGAEVKKPGESLKISCKGSGYSFTSYWIGWVRQMPGKGLEWMGIIYPGDSDTRYSPSFQGQVILSADKSISTAYLQWSSLKASDTAMYYCARHDESSGYYYVFDIWGQGTMVTVSS
VL: SYELTQPPSVSVSPGQTARITCSGDALPKKYAYWYQQKSGQAPVLVIYEDIKRPSGIPERFSGSSSGTMATLTISGAQVEDEADYYCYSTDSSGNHWVFFGGGTKLTVL
notes: Fully human XenoMouse mAb; also called sc 097
